The target of test [1] is T1, cynomolgus PDL1 antigen (cynomolgus, UniProt G7PSE7 19-238). Nature of the test: SPR (Biacore); EXP2.
Test [2] addresses T2, human CD28 (human, UniProt P10747 19-152).
Test [3] deals with T1, cynomolgus PDL1 antigen. Nature of the test: SPR (Biacore); EXP1. On the technique in general: SPR reads the build-up and loss of mass on a sensor chip optically.
Test [4] has as its target T3, human PDL1 antigen (human, UniProt Q9NZQ7 19-238).
Test [5] has as its target T3, human PDL1 antigen. Nature of the test: SPR (Biacore); EXP1.
Test [6] deals with T2, human CD28. Nature of the test: -; scFv VHVL in 1+1 Fab-scFv-Fc bsAb.
Test [7] concerns the target T2, human CD28. Nature of the test: BLI (Octet); average of HIS1K and SA capture. For orientation: BLI is a label-free optical method that tracks binding on a fibre tip over time.
Test [8] deals with T2, human CD28. Nature of the test: Octet; avid.

Read-outs that look alike come from different tables or passages of the source.

B1: αPDL1×αCD28 bsAb with PDL1 binding domain 2G4_H1.12_L1.66 and CD28 binding domain 1A7_H1.14_L1.71 (bispecific antibody)
heavy: EVQLLESGGGLVQPGGSLRLSCAASGFTFSVYDMSWVRQAPGKRLEWVSTISSGGSFTHYPDSVKGRFTISRDNSKNTLYLQMNSLRAEDTAVYYCVRRSLDWYFDVWGAGTTVTVSSASTKGPSVFPLAPSSKSTSGGTAALGCLVKDYFPEPVTVSWNSGALTSGVHTFPAVLQSSGLYSLSSVVTVPSSSLGTQTYICNVNHKPSDTKVDKKVEPKSCDKTHTCPPCPAPPVAGPSVFLFPPKPKDTLMISRTPEVTCVVVDVKHEDPEVKFNWYVDGVEVHNAKTKPREEEYNSTYRVVSVLTVLHQDWLNGKEYKCKVSNKALPAPIEKTISKAKGQPREPQVYTLPPSREEMTKNQVSLTCDVSGFYPSDIAVEWESDGQPENNYKTTPPVLDSDGSFFLYSKLTVDKSRWEQGDVFSCSVMHEALHNHYTQKSLSLSPGK
scFv-Fc: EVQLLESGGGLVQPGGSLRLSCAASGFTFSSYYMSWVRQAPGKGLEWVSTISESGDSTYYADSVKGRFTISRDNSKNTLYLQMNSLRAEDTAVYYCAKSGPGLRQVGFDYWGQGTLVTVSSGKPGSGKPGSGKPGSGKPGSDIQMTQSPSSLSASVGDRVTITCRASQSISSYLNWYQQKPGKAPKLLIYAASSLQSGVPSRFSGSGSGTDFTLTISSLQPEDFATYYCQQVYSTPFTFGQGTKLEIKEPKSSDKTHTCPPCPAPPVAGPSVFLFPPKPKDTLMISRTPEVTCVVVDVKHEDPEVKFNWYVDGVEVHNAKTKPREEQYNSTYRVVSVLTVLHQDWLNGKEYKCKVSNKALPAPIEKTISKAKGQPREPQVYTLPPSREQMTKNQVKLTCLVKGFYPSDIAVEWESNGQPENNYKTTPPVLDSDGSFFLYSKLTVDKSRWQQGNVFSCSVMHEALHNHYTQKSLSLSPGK
light: EIVLTQSPGTLSLSPGERATLSCRVSSSIQSTNLHWYQQKPGQSPRPLIYGTSNLATGVPVRFSGSGSGTDYTLTISRLEPEDFAVYYCQQWSSYPLYTFGGGTKVEIKRTVAAPSVFIFPPSDEQLKSGTASVVCLLNNFYPREAKVQWKVDNALQSGNSQESVTEQDSKDSTYSLSSTLTLSKADYEKHKVYACEVTHQGLSSPVTKSFNRGEC
As usually defined, the Kd is the concentration at which binding is half-saturated. As to B1, in the test with cynomolgus PDL1 antigen [1], the Kd was found to be 1.7 nM.

B2: XENP38514 (bispecific antibody)
heavy: EVQLLESGGGLVQPGGSLRLSCAASGFTFSVYDMSWVRQAPGKRLEWVSTISSGGSFTHYPDSVKGRFTISRDNSKNTLYLQMNSLRAEDTAVYYCVRRSLDWYFDVWGAGTTVTVSSASTKGPSVFPLAPSSKSTSGGTAALGCLVKDYFPEPVTVSWNSGALTSGVHTFPAVLQSSGLYSLSSVVTVPSSSLGTQTYICNVNHKPSDTKVDKKVEPKSCDKTHTCPPCPAPPVAGPSVFLFPPKPKDTLMISRTPEVTCVVVDVKHEDPEVKFNWYVDGVEVHNAKTKPREEEYNSTYRVVSVLTVLHQDWLNGKEYKCKVSNKALPAPIEKTISKAKGQPREPQVYTLPPSREEMTKNQVSLTCDVSGFYPSDIAVEWESDGQPENNYKTTPPVLDSDGSFFLYSKLTVDKSRWEQGDVFSCSVMHEALHNHYTQKSLSLSPGK
scFv-Fc: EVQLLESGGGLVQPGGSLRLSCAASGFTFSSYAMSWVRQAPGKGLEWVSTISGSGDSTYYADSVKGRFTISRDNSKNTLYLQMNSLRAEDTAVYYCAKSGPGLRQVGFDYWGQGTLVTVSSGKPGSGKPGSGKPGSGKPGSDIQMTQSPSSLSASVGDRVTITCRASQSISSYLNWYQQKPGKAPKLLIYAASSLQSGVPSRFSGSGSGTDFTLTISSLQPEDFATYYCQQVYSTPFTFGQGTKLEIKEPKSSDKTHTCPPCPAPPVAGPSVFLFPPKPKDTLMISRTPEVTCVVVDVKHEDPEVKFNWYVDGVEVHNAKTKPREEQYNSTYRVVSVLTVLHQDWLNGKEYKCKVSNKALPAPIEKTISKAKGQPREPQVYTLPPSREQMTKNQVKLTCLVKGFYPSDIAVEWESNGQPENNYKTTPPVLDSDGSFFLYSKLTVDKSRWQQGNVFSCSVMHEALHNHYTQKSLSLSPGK
light: EIVLTQSPGTLSLSPGERATLSCRVSSSIQSTNLHWYQQKPGQSPRPLIYGTSVLATGVPVRFSGSGSGTDYTLTISRLEPEDFAVYYCQQWSSYPLYTFGGGTKVEIKRTVAAPSVFIFPPSDEQLKSGTASVVCLLNNFYPREAKVQWKVDNALQSGNSQESVTEQDSKDSTYSLSSTLTLSKADYEKHKVYACEVTHQGLSSPVTKSFNRGEC
As to B2, the figures for the Kd with human CD28 [2] and in the test with cynomolgus PDL1 antigen [3] were 180 nM and 0.38 nM, respectively.

B3: XENP37559 (bispecific antibody)
heavy: EVQLLESGGGLVQPGGSLRLSCAASGFTFSSYDMSWVRQAPGKRLEWVSTISSGGSFTHYPDSVKGRFTISRDNSKNTLYLQMNSLRAEDTAVYYCVRRSGDWYFDVWGAGTTVTVSSASTKGPSVFPLAPSSKSTSGGTAALGCLVKDYFPEPVTVSWNSGALTSGVHTFPAVLQSSGLYSLSSVVTVPSSSLGTQTYICNVNHKPSDTKVDKKVEPKSCDKTHTCPPCPAPPVAGPSVFLFPPKPKDTLMISRTPEVTCVVVDVKHEDPEVKFNWYVDGVEVHNAKTKPREEEYNSTYRVVSVLTVLHQDWLNGKEYKCKVSNKALPAPIEKTISKAKGQPREPQVYTLPPSREEMTKNQVSLTCDVSGFYPSDIAVEWESDGQPENNYKTTPPVLDSDGSFFLYSKLTVDKSRWEQGDVFSCSVMHEALHNHYTQKSLSLSPGK
scFv-Fc: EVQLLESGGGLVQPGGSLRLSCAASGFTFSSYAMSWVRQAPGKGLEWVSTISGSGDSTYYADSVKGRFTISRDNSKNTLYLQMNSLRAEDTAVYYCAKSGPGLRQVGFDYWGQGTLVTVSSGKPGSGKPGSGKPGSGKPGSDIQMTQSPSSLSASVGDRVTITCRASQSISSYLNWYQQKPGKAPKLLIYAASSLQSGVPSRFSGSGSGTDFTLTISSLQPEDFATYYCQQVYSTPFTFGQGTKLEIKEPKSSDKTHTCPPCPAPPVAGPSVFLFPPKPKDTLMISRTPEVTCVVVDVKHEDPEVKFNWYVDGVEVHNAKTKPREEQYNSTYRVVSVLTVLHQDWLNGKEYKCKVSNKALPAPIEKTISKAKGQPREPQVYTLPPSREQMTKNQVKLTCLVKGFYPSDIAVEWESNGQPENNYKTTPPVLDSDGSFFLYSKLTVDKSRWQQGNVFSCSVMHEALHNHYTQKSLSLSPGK
light: EIVLTQSPGTLSLSPGERATLSCRVSSSISSSNLHWYQQKPGQSPRPLIYGTSNLASGVPVRFSGSGSGTDYTLTISRLEPEDFAVYYCQQWSSYPLYTFGGGTKVEIKRTVAAPSVFIFPPSDEQLKSGTASVVCLLNNFYPREAKVQWKVDNALQSGNSQESVTEQDSKDSTYSLSSTLTLSKADYEKHKVYACEVTHQGLSSPVTKSFNRGEC
Turning to B3, the Kd in the test with human PDL1 antigen [4] was determined as 2.6 nM; with cynomolgus PDL1 antigen [3], 2.2 nM; in the test with human PDL1 antigen [5] it was 2.6 nM.

B4: αPDL1×αCD28 bsAb with PDL1 binding domain 2G4_H1.12_L1.68 and CD28 binding domain 1A7_H1.14_L1.71 (bispecific antibody)
heavy: EVQLLESGGGLVQPGGSLRLSCAASGFTFSVYDMSWVRQAPGKRLEWVSTISSGGSFTHYPDSVKGRFTISRDNSKNTLYLQMNSLRAEDTAVYYCVRRSLDWYFDVWGAGTTVTVSSASTKGPSVFPLAPSSKSTSGGTAALGCLVKDYFPEPVTVSWNSGALTSGVHTFPAVLQSSGLYSLSSVVTVPSSSLGTQTYICNVNHKPSDTKVDKKVEPKSCDKTHTCPPCPAPPVAGPSVFLFPPKPKDTLMISRTPEVTCVVVDVKHEDPEVKFNWYVDGVEVHNAKTKPREEEYNSTYRVVSVLTVLHQDWLNGKEYKCKVSNKALPAPIEKTISKAKGQPREPQVYTLPPSREEMTKNQVSLTCDVSGFYPSDIAVEWESDGQPENNYKTTPPVLDSDGSFFLYSKLTVDKSRWEQGDVFSCSVMHEALHNHYTQKSLSLSPGK
scFv-Fc: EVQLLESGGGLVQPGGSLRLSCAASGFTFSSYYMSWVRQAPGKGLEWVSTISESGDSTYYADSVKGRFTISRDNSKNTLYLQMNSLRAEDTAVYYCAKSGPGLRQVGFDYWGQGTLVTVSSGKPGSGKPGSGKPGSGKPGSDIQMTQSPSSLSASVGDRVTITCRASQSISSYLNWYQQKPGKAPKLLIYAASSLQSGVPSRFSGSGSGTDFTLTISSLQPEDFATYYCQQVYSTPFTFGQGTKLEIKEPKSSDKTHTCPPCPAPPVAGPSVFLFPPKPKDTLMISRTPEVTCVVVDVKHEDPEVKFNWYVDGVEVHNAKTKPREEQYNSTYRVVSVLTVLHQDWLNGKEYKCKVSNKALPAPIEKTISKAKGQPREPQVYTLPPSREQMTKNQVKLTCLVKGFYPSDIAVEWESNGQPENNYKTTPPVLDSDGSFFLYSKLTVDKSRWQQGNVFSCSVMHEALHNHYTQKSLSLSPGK
light: EIVLTQSPGTLSLSPGERATLSCRVSSSIQSTNLHWYQQKPGQSPRPLIYGTSNLASGVPVRFSGSGSGTDYTLTISRLEPEDFAVYYCQQWSSYPLYTFGGGTKVEIKRTVAAPSVFIFPPSDEQLKSGTASVVCLLNNFYPREAKVQWKVDNALQSGNSQESVTEQDSKDSTYSLSSTLTLSKADYEKHKVYACEVTHQGLSSPVTKSFNRGEC
As for B4, the Kd with cynomolgus PDL1 antigen [1] amounted to 1.5 nM.

B5: XENP36233 (bispecific antibody)
heavy: EVQLLESGGGLVQPGGSLRLSCAASGFTFSSYDMSWVRQAPGKRLEWVSTISSGGSFTHYPDSVKGRFTISRDNSKNTLYLQMNSLRAEDTAVYYCVRRSGDWYFDVWGAGTTVTVSSASTKGPSVFPLAPSSKSTSGGTAALGCLVKDYFPEPVTVSWNSGALTSGVHTFPAVLQSSGLYSLSSVVTVPSSSLGTQTYICNVNHKPSDTKVDKKVEPKSCDKTHTCPPCPAPPVAGPSVFLFPPKPKDTLMISRTPEVTCVVVDVKHEDPEVKFNWYVDGVEVHNAKTKPREEEYNSTYRVVSVLTVLHQDWLNGKEYKCKVSNKALPAPIEKTISKAKGQPREPQVYTLPPSREEMTKNQVSLTCDVSGFYPSDIAVEWESDGQPENNYKTTPPVLDSDGSFFLYSKLTVDKSRWEQGDVFSCSVMHEALHNHYTQKSLSLSPGK
scFv-Fc: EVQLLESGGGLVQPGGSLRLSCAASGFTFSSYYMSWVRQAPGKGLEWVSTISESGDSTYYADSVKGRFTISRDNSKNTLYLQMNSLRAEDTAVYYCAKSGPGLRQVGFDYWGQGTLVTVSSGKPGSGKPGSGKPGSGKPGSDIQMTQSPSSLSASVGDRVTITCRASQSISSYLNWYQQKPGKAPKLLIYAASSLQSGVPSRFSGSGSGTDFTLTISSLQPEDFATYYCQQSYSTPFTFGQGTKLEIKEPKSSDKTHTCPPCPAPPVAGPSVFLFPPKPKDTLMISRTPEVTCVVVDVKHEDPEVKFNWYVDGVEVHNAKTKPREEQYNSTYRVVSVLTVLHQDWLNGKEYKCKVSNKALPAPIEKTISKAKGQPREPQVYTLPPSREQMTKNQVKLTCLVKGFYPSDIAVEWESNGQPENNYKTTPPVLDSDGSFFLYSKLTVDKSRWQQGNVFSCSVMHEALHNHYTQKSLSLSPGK
light: EIVLTQSPGTLSLSPGERATLSCRVSSSISSSNLHWYQQKPGQSPRPLIYGTSNLASGVPVRFSGSGSGTDYTLTISRLEPEDFAVYYCQQWSSYPLYTFGGGTKVEIKRTVAAPSVFIFPPSDEQLKSGTASVVCLLNNFYPREAKVQWKVDNALQSGNSQESVTEQDSKDSTYSLSSTLTLSKADYEKHKVYACEVTHQGLSSPVTKSFNRGEC
With B5, the Kd with human CD28 [6] and in the test with human CD28 [7] was 229 nM in each case.

B6: XENP37560 (bispecific antibody)
heavy: EVQLLESGGGLVQPGGSLRLSCAASGFTFSSYDMSWVRQAPGKRLEWVSTISSGGSFTHYPDSVKGRFTISRDNSKNTLYLQMNSLRAEDTAVYYCVRRSGDWYFDVWGAGTTVTVSSASTKGPSVFPLAPSSKSTSGGTAALGCLVKDYFPEPVTVSWNSGALTSGVHTFPAVLQSSGLYSLSSVVTVPSSSLGTQTYICNVNHKPSDTKVDKKVEPKSCDKTHTCPPCPAPPVAGPSVFLFPPKPKDTLMISRTPEVTCVVVDVKHEDPEVKFNWYVDGVEVHNAKTKPREEEYNSTYRVVSVLTVLHQDWLNGKEYKCKVSNKALPAPIEKTISKAKGQPREPQVYTLPPSREEMTKNQVSLTCDVSGFYPSDIAVEWESDGQPENNYKTTPPVLDSDGSFFLYSKLTVDKSRWEQGDVFSCSVMHEALHNHYTQKSLSLSPGK
scFv-Fc: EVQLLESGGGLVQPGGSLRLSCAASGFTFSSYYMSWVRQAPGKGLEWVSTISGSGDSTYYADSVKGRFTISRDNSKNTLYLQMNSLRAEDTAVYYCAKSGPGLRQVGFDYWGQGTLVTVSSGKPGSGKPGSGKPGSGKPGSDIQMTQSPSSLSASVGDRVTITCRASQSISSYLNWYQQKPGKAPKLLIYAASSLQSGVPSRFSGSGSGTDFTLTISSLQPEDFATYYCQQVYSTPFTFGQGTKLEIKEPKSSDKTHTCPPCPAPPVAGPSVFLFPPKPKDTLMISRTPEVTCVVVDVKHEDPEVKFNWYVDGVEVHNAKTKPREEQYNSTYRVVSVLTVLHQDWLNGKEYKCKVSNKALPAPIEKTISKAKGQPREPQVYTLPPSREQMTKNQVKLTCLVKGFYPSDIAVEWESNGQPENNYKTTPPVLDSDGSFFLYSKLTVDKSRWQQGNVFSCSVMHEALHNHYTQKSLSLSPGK
light: EIVLTQSPGTLSLSPGERATLSCRVSSSISSSNLHWYQQKPGQSPRPLIYGTSNLASGVPVRFSGSGSGTDYTLTISRLEPEDFAVYYCQQWSSYPLYTFGGGTKVEIKRTVAAPSVFIFPPSDEQLKSGTASVVCLLNNFYPREAKVQWKVDNALQSGNSQESVTEQDSKDSTYSLSSTLTLSKADYEKHKVYACEVTHQGLSSPVTKSFNRGEC
On to B6, for which the Kd with human CD28 [6] and with human CD28 [7] was 91.6 nM in each case.

B7: αPDL1×αCD28 bsAb with PDL1 binding domain 2G4_H1.12_L1.14 and CD28 binding domain 1A7_H1.14_L1.71 (bispecific antibody)
heavy: EVQLLESGGGLVQPGGSLRLSCAASGFTFSVYDMSWVRQAPGKRLEWVSTISSGGSFTHYPDSVKGRFTISRDNSKNTLYLQMNSLRAEDTAVYYCVRRSLDWYFDVWGAGTTVTVSSASTKGPSVFPLAPSSKSTSGGTAALGCLVKDYFPEPVTVSWNSGALTSGVHTFPAVLQSSGLYSLSSVVTVPSSSLGTQTYICNVNHKPSDTKVDKKVEPKSCDKTHTCPPCPAPPVAGPSVFLFPPKPKDTLMISRTPEVTCVVVDVKHEDPEVKFNWYVDGVEVHNAKTKPREEEYNSTYRVVSVLTVLHQDWLNGKEYKCKVSNKALPAPIEKTISKAKGQPREPQVYTLPPSREEMTKNQVSLTCDVSGFYPSDIAVEWESDGQPENNYKTTPPVLDSDGSFFLYSKLTVDKSRWEQGDVFSCSVMHEALHNHYTQKSLSLSPGK
scFv-Fc: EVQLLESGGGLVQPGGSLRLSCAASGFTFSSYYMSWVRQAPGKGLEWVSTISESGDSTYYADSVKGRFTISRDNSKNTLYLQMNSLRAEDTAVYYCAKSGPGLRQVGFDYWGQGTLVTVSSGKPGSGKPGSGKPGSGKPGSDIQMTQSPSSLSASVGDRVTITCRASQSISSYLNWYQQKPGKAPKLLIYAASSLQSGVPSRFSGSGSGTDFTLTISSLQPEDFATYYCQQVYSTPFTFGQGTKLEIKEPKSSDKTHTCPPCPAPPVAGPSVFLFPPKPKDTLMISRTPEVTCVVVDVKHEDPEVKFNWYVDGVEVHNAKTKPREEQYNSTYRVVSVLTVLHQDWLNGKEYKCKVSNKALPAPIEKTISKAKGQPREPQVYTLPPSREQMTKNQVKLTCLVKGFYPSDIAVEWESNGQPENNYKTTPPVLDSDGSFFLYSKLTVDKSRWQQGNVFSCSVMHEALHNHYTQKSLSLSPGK
light: EIVLTQSPGTLSLSPGERATLSCRVSSSIQSSNLHWYQQKPGQSPRPLIYGTSNLASGVPVRFSGSGSGTDYTLTISRLEPEDFAVYYCQQWSSYPLYTFGGGTKVEIKRTVAAPSVFIFPPSDEQLKSGTASVVCLLNNFYPREAKVQWKVDNALQSGNSQESVTEQDSKDSTYSLSSTLTLSKADYEKHKVYACEVTHQGLSSPVTKSFNRGEC
Regarding B7, the affinity in the test with cynomolgus PDL1 antigen [1], expressed as Kd, was 0.8 nM. This counts as sub-nanomolar.

B8: XENP28428 (antibody, V domains shown)
VH: EVQLLESGGGLVQPGGSLRLSCAASGFTFSSYAMSWVRQAPGKGLEWVSTISGSGDSTYYADSVKGRFTISRDNSKNTLYLQMNSLRAEDTAVYYCAKSGPGLRQVGFDYWGQGTLVTVSS
VL: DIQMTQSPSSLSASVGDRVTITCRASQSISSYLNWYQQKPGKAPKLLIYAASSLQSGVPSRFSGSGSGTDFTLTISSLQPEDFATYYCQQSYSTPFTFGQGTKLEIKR
Regarding B8, the Kd with human CD28 [8] came out at 14.5 nM.

These data come from US20220135684A1 (published 2022).
